Reference: paper PMC3117075 (2011)
Non-standard residues stand in square brackets, D forms with d. pT = C[C@@H](OP(=O)(O)O)[C@H](N)C(=O)O; pS = N[C@@H](COP(=O)(O)O)C(=O)O

B1: BRCA1 BRCT (protein)
chain: STERVNKRMSMVVSGLTPEEFMLVYKFARKHHITLTNLITEETTHVVMKTDAEFVCERTLKYFLGIAGGKWVVSYFWVTQSIKERKMLNEHDFEVRGDVVNGRNHQGPKRARESQDRKIFRGLEICCYGPFTNMPTDQLEWMVQLCGASVVKELSSFTLGTGVHPIVVVQPDAWTEDNGFHAIGQMCEAPVVTREWVLDSVALYQCQELDTYLI
B2: BRCA1 BRCT (protein)
chain: VNKRMSMVVSGLTPEEFMLVYKFARKHHITLTNLITEETTHVVMKTDAEFVCERTLKYFLGIAGGKWVVSYFWVTQSIKERKMLNEHDFEVRGDVVNGRNHQGPKRARESQDRKIFRGLEICCYGPFTNMPTDQLEWMVQLCGASVVKELSSFTLGTGVHPIVVVQPDAWTEDNGFHAIGQMCEAPVVTREWVLDSVALYQCQELDTYLIPQIP

Legend:
[1] = biological target: T1, Ac-pSPTF-COOH (peptide 18) (Homo sapiens, UniProt Q9BX63, SMILES CC(=O)N[C@@H](COP(=O)(O)O)C(=O)N1CCC[C@H]1C(=O)N[C@H](C(=O)N[C@@H](Cc1ccccc1)C(=O)O)[C@@H](C)O); experiment: ITC
T1 chain: Ac-[pS]PTF-OH

[2] = biological target: T2, Ac-pSPVF-CONH2 (peptide 7) (Homo sapiens, UniProt Q9BX63, SMILES CC(=O)N[C@@H](COP(=O)(O)O)C(=O)N1CCC[C@H]1C(=O)N[C@H](C(=O)N[C@@H](Cc1ccccc1)C(N)=O)C(C)C); experiment: fluorescence polarization competition
T2 chain: Ac-[pS]PVF-NH2

[3] = biological target: T3, Ac-pSPSF-CONH2 (peptide 8) (Homo sapiens, UniProt Q9BX63, SMILES CC(=O)N[C@@H](COP(=O)(O)O)C(=O)N1CCC[C@H]1C(=O)N[C@@H](CO)C(=O)N[C@@H](Cc1ccccc1)C(N)=O); experiment: fluorescence polarization competition
T3 chain: Ac-[pS]PSF-NH2

[4] = biological target: T1, Ac-pSPTF-COOH (peptide 18); experiment: fluorescence polarization competition
[5] = biological target: T4, Ac-pSPAF-CONH2 (peptide 6) (Homo sapiens, UniProt Q9BX63, SMILES CC(=O)N[C@@H](COP(=O)(O)O)C(=O)N1CCC[C@H]1C(=O)N[C@@H](C)C(=O)N[C@@H](Cc1ccccc1)C(N)=O); experiment: fluorescence polarization competition
T4 chain: Ac-[pS]PAF-NH2

[6] = biological target: T5, Ac-pSPVF-COOH (peptide 19) (Homo sapiens, UniProt Q9BX63, SMILES CC(=O)N[C@@H](COP(=O)(O)O)C(=O)N1CCC[C@H]1C(=O)N[C@H](C(=O)N[C@@H](Cc1ccccc1)C(=O)O)C(C)C); experiment: fluorescence polarization competition
T5 chain: Ac-[pS]PVF-OH

[7] = biological target: T6, Ac-pSPPF-CONH2 (peptide 15) (Homo sapiens, UniProt Q9BX63, SMILES CC(=O)N[C@@H](COP(=O)(O)O)C(=O)N1CCC[C@H]1C(=O)N1CCC[C@H]1C(=O)N[C@@H](Cc1ccccc1)C(N)=O); experiment: fluorescence polarization competition
T6 chain: Ac-[pS]PPF-NH2

[8] = biological target: T7, Ac-pSPTF-CONH2 (peptide 1) (Homo sapiens, UniProt Q9BX63, SMILES CC(=O)N[C@@H](COP(=O)(O)O)C(=O)N1CCC[C@H]1C(=O)N[C@H](C(=O)N[C@@H](Cc1ccccc1)C(N)=O)[C@@H](C)O); experiment: fluorescence polarization competition
T7 chain: Ac-[pS]PTF-NH2

[9] = biological target: T8, Ac-pTPTF-CONH2 (peptide 4) (Homo sapiens, UniProt Q9BX63, SMILES CC(=O)N[C@H](C(=O)N1CCC[C@H]1C(=O)N[C@H](C(=O)N[C@@H](Cc1ccccc1)C(N)=O)[C@@H](C)O)[C@@H](C)OP(=O)(O)O); experiment: fluorescence polarization competition
T8 chain: Ac-[pT]PTF-NH2

[10] = biological target: T9, Ac-pSATF-CONH2 (peptide 5) (Homo sapiens, UniProt Q9BX63, SMILES CC(=O)N[C@@H](COP(=O)(O)O)C(=O)N[C@@H](C)C(=O)N[C@H](C(=O)N[C@@H](Cc1ccccc1)C(N)=O)[C@@H](C)O); experiment: fluorescence polarization competition
T9 chain: Ac-[pS]ATF-NH2

[11] = biological target: T10, Ac-EPTF-CONH2 (peptide 2) (Homo sapiens, UniProt Q9BX63); experiment: fluorescence polarization competition
T10 chain: Ac-EPTF-NH2

Kd [1] [µM] | IC50 [2] [µM] | IC50 [3] [µM] | IC50 [4] [µM] | IC50 [5] [µM] | IC50 [6] [µM] | IC50 [7] [µM] | IC50 [8] [µM] | IC50 [9] [µM] | IC50 [10] [µM] | IC50 [11] [µM] | Binder
0.19 | 3.2 | 30.1 | 1 | 35 | 1.6 | > 250 |  |  |  |  | B1
 |  |  |  |  |  |  | 4.6 | > 250 | 15 | > 250 | B2
